Data on one protein can be found in patent US20180066070.

B1: Sirtuin (silent mating type information regulation 2 homolog) 1 (protein)
chain: MADEAALALQPGGSPSAAGADREAASSPAGEPLRKRPRRDGPGLERSPGEPGGAAPEREVPAAARGCPGAAAAALWREAEAEAAAAGGEQEAQATAAAGEGDNGPGLQGPSREPPLADNLYDEDDDDEGEEEEEAAAAAIGYRDNLLFGDEIITNGFHSCESDEEDRASHASSSDWTPRPRIGPYTFVQQHLMIGTDPRTILKDLLPETIPPPELDDMTLWQIVINILSEPPKRKKRKDINTIEDAVKLLQECKKIIVLTGAGVSVSCGIPDFRSRDGIYARLAVDFPDLPDPQAMFDIEYFRKDPRPFFKFAKEIYPGQFQPSLCHKFIALSDKEGKLLRNYTQNIDTLEQVAGIQRIIQCHGSFATASCLICKYKVDCEAVRGDIFNQVVPRCPRCPADEPLAIMKPEIVFFGENLPEQFHRAMKYDKDEVDLLIVIGSSLKVRPVALIPSSIPHEVPQILINREPLPHLHFDVELLGDCDVIINELCHRLGGEYAKLCCNPVKLSEITEKPPRTQKELAYLSELPPTPLHVSEDSSSPERTSPPDSSVIVTLLDQAAKSNDDLDVSESKGCMEEKPQEVQTSRNVESIAEQMENPDLKNVGSSTGEKNERTSVAGTVRKCWPNRVAKEQISRRLDGNQYLFLPPNRYIFHGAEVYSDSEDDVLSSSSCGSNSDSGTCQSPSLEEPMEDESEIEEFYNGLEDEPDVPERAGGAGFGTDGDDQEAINEAISVKQEVTDMNYPSNKS
Take B1: the “increase in fluorescence caused by deacetylation of fluorogenic PCSK9 peptide” value with acetyl-PCSK9-AMC peptide was “SIRT1 deacetylates fluorogenic PCSK9 peptide”. In the series with Recombinant PCSK9, the “deacetylation in vitro (SDS-PAGE, blots for acetyl-lysine and PCSK9)” value was “PCSK9 is deacetylated by SIRT1 in vitro”.
